Data taken from the Immune Epitope Database (IEDB).

These sequences were tested against HLA-A*02:01 (assay: IEDB peptide-MHC binding, purified MHC/competitive/radioactivity; ≥ and ≤ were set here for values at or beyond the usual limits of such assays). Details: source organism: Trypanosoma cruzi.

| Sequence | IC50 |
| --- | --- |
| MMSCSSEAT | 1.17 µM |
| SMNATLVQA | 0.267 µM |
| ALSLAAVLV | 0.112 µM |
| IILNGSLLT | 4.33 µM |
| FLGGGGAGI | 3.58 µM |
| YVNGVVVATV | 0.466 µM |
| LMNNAFEWI | 0.395 µM |
| RALSLAAVL | 3.89 µM |
| VVMACLVPAA | 0.098 µM |
| KVVSLVILA | 0.409 µM |
| SIHVTVSNV | 3.61 µM |
| WLSDCGEAL | 0.228 µM |
| ALSLAAVLVV | 0.324 µM |
| FTSAVLLLVV | 0.918 µM |
| FTLVAPVSI | 0.363 µM |
| GLLLLGLWGT | 0.062 µM |
| QMDYSNGLFV | 0.061 µM |
| SVFRENLFL | 0.059 µM |
| WIIKNSWTA | 0.186 µM |
| RLLSPTTIV | 0.29 µM |
| RLHLWLSDM | 4.91 µM |
| TLLYATVEV | 0.068 µM |
| AMALIGDSTV | 0.148 µM |

| Sequence | IC50 |
| --- | --- |
| LLTTSGVSAI | 1.11 µM |
| LLLGLWGTA | 0.944 µM |
| KTWADEYLCV | 0.444 µM |
| AASTLLYATV | 2.98 µM |
| AANPHATFGV | 2.95 µM |
| FTSAVLLLV | 0.01 µM |
| FLARLHAAA | 0.048 µM |
| LLLGLWGTAA | 0.241 µM |
| RVFTSAVLL | 0.661 µM |
| LMNNAFEWIV | 0.056 µM |
| QLDHGVLLV | 0.673 µM |
| VMACLVPAA | 0.01 µM |
| FLAGHPLTNL | 0.014 µM |
| VMMSCSSEA | 0.055 µM |
| MTSCVSEQL | 0.348 µM |
| LLLLGLWGTA | 0.888 µM |
| AVLVVMACL | 4.15 µM |
| CLVPAATASL | 2.54 µM |
| LTNLSEQMLV | 3.19 µM |
| SLVYVNGVVV | 2.88 µM |
| GLMNNAFEWI | 0.175 µM |
| RVFGLLLLGL | 0.355 µM |

What follows are sequences tested against HLA-A*02:01 (assay: IEDB peptide-MHC binding, purified MHC/competitive/radioactivity; filed as Kd, often an IC50 or EC50 that approximates it; ≥ and ≤ were set here for values at or beyond the usual limits of such assays). Details: source organism: Trypanosoma cruzi.

| Sequence | Kd |
| --- | --- |
| MTEQTDEAV | ≥ 43.4 µM |
| SLSVVRPMT | 8.56 µM |
| VAVNGPVAV | ≥ 28.2 µM |
| LVYVNGVVV | 9.07 µM |
| LLVGYNDSAA | ≥ 28.2 µM |
| VLLLVVVMM | ≥ 27.9 µM |
| IVQENNGAV | ≥ 28.2 µM |
| ALKNNGKVV | ≥ 43.4 µM |
| NVLLYNRLL | 6.03 µM |
| VTLPTGQCL | ≥ 28.2 µM |
| STHCSGPSV | ≥ 28.2 µM |
| WADEYLCVNA | ≥ 43.4 µM |
| VLVVMACLV | 7.35 µM |
| LAAVLVVMA | ≥ 22.8 µM |
| GVQGGFVSA | ≥ 43.4 µM |
| SVPLNQCNWL | ≥ 28.2 µM |
| CLLTTSGVSA | 10.4 µM |
| AACIVGCENV | ≥ 28.2 µM |
| MTYTGGVMT | ≥ 28.2 µM |
| FANSKFTLVA | ≥ 43.4 µM |

| Sequence | Kd |
| --- | --- |
| QVHSSLSVV | ≥ 43.4 µM |
| RIILNGSLL | ≥ 43.4 µM |
| FTDNKSCVSL | 14.4 µM |
| STSRVPYDI | ≥ 43.4 µM |
| MALIGDSTV | 17.5 µM |
| GLTFKGPGA | ≥ 43.4 µM |
| LLVGYNDSA | ≥ 28.2 µM |
| LVQAFHSFRA | 6.92 µM |
| YATVEVPSL | 5.5 µM |
| LLGLWGTAA | 6.26 µM |
| WMTYTGGVMT | ≥ 28.2 µM |
| KALETDVPA | ≥ 43.4 µM |
| MACLVPAAT | ≥ 26.8 µM |
| QMSCTDAACI | ≥ 28.2 µM |
| WAFSAIGNV | 16.7 µM |
| WIVQENNGA | 12.8 µM |
| AIVFDHYDV | ≥ 43.4 µM |
| LLTTSGVSA | ≥ 28.2 µM |
| AIVTCGAETL | ≥ 28.2 µM |
| LTFKGPGAWA | ≥ 43.4 µM |
